Measurements taken from patent publication US20260210939A1, “MODIFIED OLFACTORY RECEPTORS” (GIVAUDAN SA, priority 2022, published 2026).

Target: T1, OR7D4 (Homo sapiens, UniProt Q8NG98, D296E/E302K/G299D)
T1 construct: Improved functional expression of modified OR-genes containing the truncated, optimized C-terminus; expressed in transfected cells
T1 sequence (Q8NG98 with tags, fused parts or gaps D296E/G299D/E302K): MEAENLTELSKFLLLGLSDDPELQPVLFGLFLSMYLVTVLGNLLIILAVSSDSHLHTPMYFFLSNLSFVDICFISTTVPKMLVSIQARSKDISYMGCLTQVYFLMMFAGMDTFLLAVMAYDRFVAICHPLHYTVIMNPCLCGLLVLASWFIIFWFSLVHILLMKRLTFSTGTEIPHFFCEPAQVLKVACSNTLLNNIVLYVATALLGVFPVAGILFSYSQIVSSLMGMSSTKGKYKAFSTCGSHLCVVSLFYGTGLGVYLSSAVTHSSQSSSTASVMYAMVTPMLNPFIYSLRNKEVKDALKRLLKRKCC
Test: CRE-luciferase assay, HEK cells expressing OR7D4 (wild-type / modified C-terminus)
Assay type: cell-based
Conditions: for EC2 (concentration for 2-fold luciferase induction) / EC2 Fold-improvement vs. wild-type / Fold induction luciferase: OR7D4 variant; for EC2 (concentration for 2-fold luciferase induction) / EC2 Fold-improvement vs. wild-type: Androstenone
Excerpt: Random permutations of the general C-terminal sequence RN[KR][EDQ][VMIL][KR]KA[LIV][KRH][KR][LI][LIF][KRG][KR][KR]CC (SEQ ID NO: 822) linked to OR7D4 were generated based on degenerate oligonucleotides for the C-terminal domain. For this experiment, the MfeI/XhoI fragment from pcDNA3.1(+)-mmLucy-FLAG-rho-OR7D4 containing the CMV promoter and the OR coding sequence was used to replace the EcoRI/SalI fragment of pRDVCCB-CMV-dCas9-VPH-2A-Blast (Cellecta, Inc., Mountain View, USA). Complementary degenerate oligonucleotides were then used to replace the coding region of the C-terminal domain of […] (between Bsu36I and NotI). Random clones were selected, sequenced and tested for a correct open reading frame. A total of 55 clones were obtained with the correct open reading frame of […] and a permutation of the general sequence RN[KR][EDQ][VMIL][KR]KA[LIV][KRH][KR][LI][LIF][KRG][KR][KR]CC (SEQ ID NO: 822) as the C-terminal domain. All the different clones were compared to the wild-type sequence by the functional assay in HEK cells with the ligand Androstenone tested in a dose-response test.

EC2 (concentration for 2-fold luciferase induction) [µM] | EC2 Fold-improvement vs. wild-type | Molecule | other results
0.010 | 164.23 | SEQ ID NO: 255 (RNREVKKAIHKLIGRKCC; source 1..18: note = C-terminal domain sequence) | –
0.004 | 385.42 | SEQ ID NO: 256 (RNREVRKAVHRLFKRKCC; source 1..18: note = C-terminal domain sequence) | –
0.010 | 172.96 | SEQ ID NO: 257 (RNKEMKKAIHKLFGKKCC; source 1..18: note = C-terminal domain sequence) | –
0.004 | 427.69 | SEQ ID NO: 261 (RNRDVRKALRRILRRRCC; source 1..18: note = C-terminal domain sequence) | –
0.041 | 41.85 | SEQ ID NO: 266 (RNKELRKAVRKIIKKKCC; source 1..18: note = C-terminal domain sequence) | –
0.006 | 266.97 | SEQ ID NO: 267 (RNRDVKKAVRRLFRRKCC; source 1..18: note = C-terminal domain sequence) | –
0.003 | 545.04 | SEQ ID NO: 268 (RNREVRKALRRIIRKRCC; source 1..18: note = C-terminal domain sequence) | –
0.012 | 145.78 | SEQ ID NO: 270 (RNKDVRKAVRRLIKRKCC; source 1..18: note = C-terminal domain sequence) | –
0.030 | 56.86 | SEQ ID NO: 271 (RNRDLRKAVRKLFKKKCC; source 1..18: note = C-terminal domain sequence) | –
0.013 | 136.52 | SEQ ID NO: 272 (RNRDLRKALRRIFKRRCC; source 1..18: note = C-terminal domain sequence) | –
0.095 | 18.20 | SEQ ID NO: 274 (RNKELKKAIKRILKKKCC; source 1..18: note = C-terminal domain sequence) | –
0.005 | 323.20 | SEQ ID NO: 275 (RNRDVRKAIRKLLKRKCC; source 1..18: note = C-terminal domain sequence) | –
0.034 | 50.55 | SEQ ID NO: 276 (RNRDLRKAVRRIFKKRCC; source 1..18: note = C-terminal domain sequence) | –
0.003 | 522.64 | SEQ ID NO: 278 (RNRDVRKALRRLFKKRCC; source 1..18: note = C-terminal domain sequence) | –
0.009 | 187.06 | SEQ ID NO: 280 (RNREMRKAIKKIIKKKCC; source 1..18: note = C-terminal domain sequence) | –
0.029 | 60.06 | SEQ ID NO: 281 (RNKEIKKAIKKIIKKRCC; source 1..18: note = C-terminal domain sequence) | –
0.007 | 250.61 | SEQ ID NO: 282 (RNRDVKKAIRRLFRRRCC; source 1..18: note = C-terminal domain sequence) | –
0.013 | 128.83 | SEQ ID NO: 283 (RNREVKKAVKKLIGKRCC; source 1..18: note = C-terminal domain sequence) | –
0.003 | 545.04 | SEQ ID NO: 284 (RNREMRKALRRLFRKRCC; source 1..18: note = C-terminal domain sequence) | –
0.003 | 545.04 | SEQ ID NO: 286 (RNRDVKKALRKLIGKRCC; source 1..18: note = C-terminal domain sequence) | –

Further lines, the molecule ahead of its results:

Molecule | EC2 (concentration for 2-fold luciferase induction) [µM] | EC2 Fold-improvement vs. wild-type | other results
C[C@]12CCC(=O)C[C@@H]1CC[C@@H]1[C@@H]2CC[C@]2(C)C=CC[C@@H]12 [Androstenone, reference compound] | – | – | Comments on efficacy: 3-fold lower; Fold-improvement potency (changed C-term. vs wild-type): 66; Fold-improvement threshold (changed C-term. vs wild-type): 265
C[C@]12CC[C@@H](O)C[C@@H]1CC[C@@H]1[C@@H]2CC[C@]2(C)C=CC[C@@H]12 [androstenol, reference compound] | – | – | activation of OR7D4 variants (wild-type vs SEQ ID NO: 86): can only activate the modified version of the receptor
SEQ ID NO: 254 (RNREMRKALHRLLGKKCC; source 1..18: note = C-terminal domain sequence) | 0.011 | 156.27 | –
SEQ ID NO: 258 (RNRDVKKAVHKLFRRKCC; source 1..18: note = C-terminal domain sequence) | 0.011 | 152.59 | –
SEQ ID NO: 259 (RNRDMKKAVHKLFGKRCC; source 1..18: note = C-terminal domain sequence) | 0.020 | 84.30 | –
SEQ ID NO: 260 (RNKELRKALHKLLGRKCC; source 1..18: note = C-terminal domain sequence) | 0.043 | 39.74 | –
SEQ ID NO: 262 (RNKDVRKAVRKLIRRRCC; source 1..18: note = C-terminal domain sequence) | 0.010 | 165.32 | –
SEQ ID NO: 263 (RNRDVRKAVRRLFRKRCC; source 1..18: note = C-terminal domain sequence) | 0.006 | 304.87 | –
SEQ ID NO: 264 (RNKDIKKAVKKLIKKKCC; source 1..18: note = C-terminal domain sequence) | 0.048 | 36.01 | Fold induction luciferase (0.1 μM Androstenone): 3.79; Fold induction luciferase (1 μM Androstenone): 23.26
SEQ ID NO: 265 (RNRELRKAVRRLFKRRCC; source 1..18: note = C-terminal domain sequence) | 0.022 | 78.45 | –
SEQ ID NO: 269 (RNKDIRKAVKKIFRRKCC; source 1..18: note = C-terminal domain sequence) | 0.026 | 65.26 | –
SEQ ID NO: 273 (RNRDVRKAIKKLIRKRCC; source 1..18: note = C-terminal domain sequence) | 0.005 | 373.12 | –
SEQ ID NO: 277 (RNRDVRKAVRKLFKRRCC; source 1..18: note = C-terminal domain sequence) | 0.005 | 325.72 | –
SEQ ID NO: 279 (RNKELKKALRKLIGKKCC; source 1..18: note = C-terminal domain sequence) | 0.098 | 17.53 | –
SEQ ID NO: 285 (RNKELKKALRRLIGRRCC; source 1..18: note = C-terminal domain sequence) | 0.042 | 41.00 | Fold induction luciferase (0.1 μM Androstenone): 3.18; Fold induction luciferase (1 μM Androstenone): 22.10
SEQ ID NO: 287 (RNREVKKAVKKLIRRKCC; source 1..18: note = C-terminal domain sequence) | 0.012 | 144.06 | –
SEQ ID NO: 288 (RNKEVRKALKKLFGKKCC; source 1..18: note = C-terminal domain sequence) | 0.006 | 294.52 | Fold induction luciferase (0.1 μM Androstenone): 17.84; Fold induction luciferase (1 μM Androstenone): 28.81
SEQ ID NO: 289 (RNKEIRKALRRLFGKKCC; source 1..18: note = C-terminal domain sequence) | 0.014 | 119.65 | –
